Reference: article PMC12350670 (2025)

Experiments:
[1] = biological target: H4-Fc (anti-FAP VNAR H4 fused to the Fc of human IgG1) (nurse shark (Ginglyomostoma cirratum)); assay: BLI
[2] = biological target: NGS2405-Fc (anti-FAP VNAR NGS2405 fused to the Fc of human IgG1) (nurse shark (Ginglyomostoma cirratum)); assay: BLI

B1: recombinant mouse FAP (mFAP) (enzyme)
chain: MKTWLKTVFGVTTLAALALVVICIVLRPSRVYKPEGNTKRALTLKDILNGTFSYKTYFPNWISEQEYLHQSEDDNIVFYNIETRESYIILSNSTMKSVNATDYGLSPDRQFVYLESDYSKLWRYSYTATYYIYDLQNGEFVRGYELPRPIQYLCWSPVGSKLAYVYQNNIYLKQRPGDPPFQITYTGRENRIFNGIPDWVYEEEMLATKYALWWSPDGKFLAYVEFNDSDIPIIAYSYYGDGQYPRTINIPYPKAGAKNPVVRVFIVDTTYPHHVGPMEVPVPEMIASSDYYFSWLTWVSSERVCLQWLKRVQNVSVLSICDFREDWHAWECPKNQEHVEESRTGWAGGFFVSTPAFSQDATSYYKIFSDKDGYKHIHYIKDTVENAIQITSGKWEAIYIFRVTQDSLFYSSNEFEGYPGRRNIYRISIGNSPPSKKCVTCHLRKERCQYYTASFSYKAKYYALVCYGPGLPISTLHDGRTDQEIQVLEENKELENSLRNIQLPKVEIKKLKDGGLTFWYKMILPPQFDRSKKYPLLIQVYGGPCSQSVKSVFAVNWITYLASKEGIVIALVDGRGTAFQGDKFLHAVYRKLGVYEVEDQLTAVRKFIEMGFIDEERIAIWGWSYGGYVSSLALASGTGLFKCGIAVAPVSSWEYYASIYSERFMGLPTKDDNLEHYKNSTVMARAEYFRNVDYLLIHGTADDNVHFQNSAQIAKALVNAQVDFQAMWYSDQNHGISSGRSQNHLYTHMTHFLKQCFSLSD
modifications: biotin (EZ-link NHS-PEG4-biotin)
Which Kd [1] does the source give for B1 here?
Its Kd is 14.2 nM.

What about the Kd [2] of the same binder?
The Kd was 79.5 nM.
